A protein production outcome set (Wang et al. 2014)

Assay: label from the status in PepcDB records

| Sequence | protein production |
| --- | --- |
| MKREAEGGFQNRYLSNCPGSSRLRVWVPIVEASPGRRPYPFRCQPCNFRLGGRAVGGLAAAQPGGRPRWRRAARRAARAPAPPWLPLPSSPRSNPLTRLLPWFKSIDLNKPIDKRIYKGTQPTCHDFNQFTAATETISLLVGFSAGQVQYLDLIKKDTSKLFNEERLIDKTKVTYLKWLPESESLFLASHASGHLYLYNVSHPCASTPPQYSLLKQGEGFAVYAAKSKAPRNPLAKWAVGEGPLNEFAFSPDGRHLACVSQDGCLRVFHFDSMLLRGLMKSYFGGLLCVCWSPDGRYVVTGGEDDLVTVWSFTEGRVVARGHGHKSWVNAVAFDPYTTRAEETASASGDGDPSGEEEEPEATSSDTGAPVSPLPKAGSVTYRFGSAGQDTQFCLWDLTEDVLSPHPPLARTRTLPGTPGATPPASGGSRAGETGAGPLPRSLSRSNSLPHPAGGGKAGGPSVSMEPGVPFSIGRFATLTLQERRDRGAEKEHKRYHSLGNISRGGSGGNSSNDKLNGPAPRSRLDPAKVLGTALCPRIHEVPLLEPLVCKKIAQERLTVLLFLEDCIITACQEGLVCTWARPGKAFTDEETETQAGEASWPRSPSKSVVEGISSQPGSSPSGTVV | failed |
| MKRFLSIAMALCIGLTMSLDANAKRFGGGKSVGAAPTHQTRQAAPTAPGAPAAAATAGAAGAAGAAAKAGGASRWLGPLAGIAAGGLLASMFMGGGFQGMQIFDILIMAVIAFVIFRFIAARRRKQQEQYAPAGHAPMQREAFEPQQPAGGSIFGGSPAPAARPVINAPAWFNEERFIEAARSHFQSLQQHWDANEMDKIAEFVTPQMLQFLKQERADLGDGFQSTYIDNLQVQLEGVDDRADKTIATLTFSGVSKTSRFDQGEVFSESWNMERAQGDNQPWLVAGIRQNG | failed |
| MKRIIILSPFRGLFRSLLYFLLGLIMALISAGYFSQLFSIVGINRDIAIIISITISFLSLFSSPFNLVLTEVKKEAIAIEEDVVFFFGFPIFIPRISRQNMNTLIAVNLGGALIPLGVSLFLMYELQAYIVYFIINIIVVIIVSKLFSRVIRGVGVIMHPIIPSIFSVISSYVLFYKLHILIPLSAYIGSVLGTLIGADLLNLRRIINEARPQVISIGGMGTFDGIFVSGIISVFISELLVII | failed |
| MKRKHLSGKSIGIVFGTFAPMHVGHVDLITKEKRANDNVLVIVSGSNTQKDRGTRTGLSLNRRFRNVREIFYDDELIVVDKLDEADMPPYPEGWVPWVNRVKDLITKNTDGPEKITFYVGESEYVIELNRYYPQAQVELIECSVINISATEIRDNPIENWRFITKPFRRHF | failed |
| MKRLAKTTLMTAMVAMVSFSIYAQTGRDIAQRVKDRPDGDTRRSELTMKLINKRGAVRERKLISYSIDMGKDKKDKKTIMFFLYPGDVKGTGFLTWDYDQIGKDDDKWLYLPAMKKTRRISGASAKKDYFMGSDFTYDDMGSRNVDEDTHKLLGEETFDGHKCWKLESTSKDQRDVFSKKIAWIRQDCLIPVRVEYYDRMNRLHRLLELSDIAQVDGFWMAQKMNMSNVQTGHRTVLEIKKPEFNRPIDESKFTVTSLEKGSL | not failed |
| MKRLALALKQRKVASWKLEEVKELTELIKNSNTILIGNLEGFPADKLHEIRKKLRGKATIKVTKNTLFKIAAKNAGIDIEKLEQYLTGPNVFIFTKDNPFITNMFFENYKLRRYAMPGDKAEEEVVIPAGDTGMPAGPILSVFGKLKVQTKVQDGKVHVVKDTVVAKPGDVIPAEALPILQKLGIMPVYVKLKIKVAYHEGLVIPAESLKLDLEGYRSNITEAYRNAFTLAVEIAYPTPDVLKFTISKVFKNAIALASEIGYITPESAQAVISKAVAKAYALATAIGGKVDLGVQLPTVQQSQSQQPAAEEKKEEKKEEEKKGPSEEEIASGLASLFG | failed |
| MKRLEVSNQAKLPTQFGEFYIQCFREKGSNGSKDHLVVFTPNFSQNPLVRLHSECLTGDALGSQKCDCGGALQMALERISKEGGLVIYLRQEGRGIGLFNKVNAYALQDKGYDTIQANEMIGFKDDERDYSVAGEILEYYRIKKMRLLTNNPKKIAALEKYAEVTRESLIVCANEHNQGYLEVKKLKMGHLL | failed |
| MKRLLFTVISLLFSVSVLAAESSADRIDLTSSTVGYAAIVIFILAYILVMGEEKLHMRKSKPVLVAAGVIWILIGFVYTGDNAVLAEEAFRENLLKFAELMLFLLVAMTYINALEERRLFDALSAWLMKKGFTYRKLFWITGFLAFFISPIADNLTTALLMSAVVMKVAEGNKKFVALCCSSIVIAVNAAGAFSPFGDITTLMVWQSGKVEFTEFLQLFVPALVNYLIPAVIMSFFIENKSPTTLHTEVELKRGALRITFLFLLTVATAVACHIWLHLPPVLGMMMGLGYLQFFGYFLRMTLPGSLARKRAMAAREGDQKRLQQLGGVVPFDVFSRVSRAEWDTLLFFYGIVLCVGGLGFMGYLGLLSESLYGGLDPTIANSILGVVSALVDNIPVMFAVLSMDPEMSTGHWLLITLACCTGGSLLSIGSASGVALMGQARGYYTFMSHLKWTPVIAIGYAASILLHLWLNQATFLS | failed |
| MKRLMFIGPSQCGKTSLTQSLRGEALHYKKTQAIEWSPMAIDTPGEYLENRCLYSALLTSACEADVIALVLNADAQWSPFSPGFTVPMNRPTIGLVTKADLADPQRISLVAQWLTQAGARQIFITSALNNSGLDAVLDFLNSKEPLCLTKLEHHHHHH | failed |
| MKRSDNVSWSQLKGGIFILVALAFFAGGVLLMGDKTKFFVPKGRLSVIMADVAGLKAGAPVWLAGVDVGVVTQIHFERPEATNEVEIVLEVDREALKKIGADSVVTVKTRGLMGEKYVDITPTREIVAKPVTRLQGTPMPKLDDVVQKAGRAFDRVDAIVAKTERGEGTLGRFASDPKLYDSLVRLTTELNAVAVSVNRGEGTLGMLNKSREPYEKLMSILNRADNTLTDIQSSEGTMSKLIHDRELYDKLVAVASKAGTAADEVRELNRRLLSKDGTLGKLVADREFYDRGLTLINRADTSLKSLEEVTARLQRGEGTAGKLLSDRELYDRLNRTVDDLDLLVKDIKENPKRYVKFSVFLEHHHHHH | failed |
| MKRWIAIILIALMPAAQAGKAAKVTLVVDDVPVVQVLQALAEQERQNLVVSPDVSGTLSLHLTDVPWKQALQTVVNSAGLVLRQEGNILHVHSQAWQKEHSARQDAERLRLQANLPLENRSISLQYVDTGELAKAGEKLLSAKGTIMVDKRTNRLLLRDNRAALAELEKWVSQMDLPVAQVELAAHIVTINEKSLRELGVKWTLADATQAGAVGDVTTLSSDLSVAAATSRVGFNIGRINGRLLDLELSALEQKQQLDIIASPRLLASHLQPASIKQGSEIPYQVSSGESGATSVEFKEAVLGMEVTPTVLQKGRIRLKLHISQNVPGQVLQQADGEVLAIDKQEIETQVEVKSGETLALGGIFSRKNKSGSDSVPLLGDIPWLGQLFRHDGKEDERRELVVFITPRLVATE | failed |
| MKRWQMEWLLVSVALVWGANYTIGKYGVAFMSSIQFNSLRFLVASPVLLLITFLMERSLRIERKDWLRLVAVGIVGTTMYQTMFMLSVKYTSATNASLLIAMSPIFTGILAVLHKQERFSMKVQIGSIVAFIGAAFVLLTGHTGGATYEYAWLGNIIGLVAAIAWGWYPILAQPLITKYSAMRVTSWSTLIGIVPLVIYCLFNVNTLTWPVDTPSWGSLAYSIVFATIFGLAMWYVGISQIGSTKVMVYMYLVPLFAVIFAAVIIGEQINMMQLVGGLIIFIGLYVVKKGGMKKPALNLKKVS | failed |
| MKSACSIITASIVLYKSKPDIIRDVITSFFSDTVTKKKLILIDNSPTDSLRVLQEERPEDIQYFFNNRNIGFGSAHNIGIREAARFNPSYHLILNPDVQFGPEVVPTLASYMDENPDIGLLMPQVYYPNGELQHLCKLFPRPWDVMLRRFVPYRSYRERNNERFELRNWSYDTIQDIPSLSGCFMFARMDILREVGGFDERFFMYAEDLDLCRRIGQVSRTVFFPKVSIMHTYAKGSYHDAKLLRHHIVSLIRYFNKWGWLFDAERRRVNRACLAVLRNQTTVKKD | failed |
| MKSAPDWIAHPDTPYLLIDEAKLKSNINYLKQRVESLGSHLRPHLKTLRTLEAAGYLLDSKSAPATVSTLAEAEAYAKAGYTDLLYAVGIAPAKLKRVAALRQQGINLHILLDNITQAQAVVDYAAEFGQDFSVFIEIDSDDHRGGIKPSDSKLLTIAKTLGEHFTGLMTHAGGSYACNTEQGLKNFAKQECDAVRIARNNLETAGIHCAITSVGSTPTAHFGEDFSDISEVRAGVYTTFDLVMKNIGVCDFSHIAMSVVTTVIGHNKEKNWLLTDSGWMALSRDSGTAGQNRDFGYGQVCKIDGSVLDGLCVNSTSQEHGVIELSDAYQLEDFPVGHQLRIMPNHACATAAMHPVYHVLMSDGSHNTWQRITGW | not failed |
| MKSEFYQGKIKQYDATKGFGFIGGLEQDVFFHISDFPLEEGEPKRNERVKFMVVENNGKFKAVKIQRVVDQSAKAKKSRAVENNTSITSALLSNFKK | failed |
| MKSFFSIFGDPSVTSVAIGKFDGMHLAHQRLFSYLDEGGAILTVDAQRGNLTPGEYKREFTPFPLYSIPLGKIKHLSGERFIYMLKKAFPNLTKVVVGYDFRFGKNRAFGVEELRGYFAGEVVVVPEVFHRGHSVHSEAIRELIAQGEMNLAGELLGRD | failed |
| MKSFVATVLVALLFIVALVFGARNEQVVTISYFVAQGEYRLPVVLAVVFFTGFMLSWLVASYYIVRLKLALAATRKKLTLQTAKKPQGVDA | failed |
| MKSGVIPSSAVGQKINEWYRYIRTFSVPDAEVLKAEIQQELKHMQHDSNLLLYYSLMEFRHQLMLDYLEPLEKLNIEDQPSLSELSRNIDSNQADLKGLLDYYVNFFRGMYEFDKREFISAITYYKQAEKKLSFVADHIERAEFYFKIAEAYYYMKQTYFSLINIKNAYEIYVEQETYNVRIIQCHFVFGVNLMDERNFEQAARHFKLALNMAQAEQKAQLVGRAYYNLGLCYYNQDLLDPAIDYFEKAVSTFESSRIVNSLPQAYFLITLIYYKQGKHDKASEYHKRGYEYAKETDDADYAVKFEFLQSLYLDQPNEEGIERCFQYLKNKNMYADIEDLALEVAKYYYEQKWFKLSASYFLQVEEARKQIQRSEGLYEIEI | failed |
| MKSIEKDKYQDIRDAVRSLCSEFDDKYHRKIDEAKAYPEEFVNKLTKAGWLAALIPEEFGGSGLGLTEASIIMEEINRSGGNSGACHGQMYNMNTLLRHGSDKQKEFWLPRIATGEWRLQSMGVTEPTAGTDTTRIKTTAVKREDRYVINGQKVWISRVQHSDWMILLVRTTPLANVKRKSEGMSIFMVDIKEAMKNGMTVRPIPNMVNHETNELFFDNLEIPEENLIGEEGMGFHYILDGLNAERTLIAAECIGDGYWFMDRVTRYTCEREVFGRPIGQNQGVQFPIAEAFIAVEAANLMRFKACELFDQHLDCGAQANMAKYLAAKASWEAANACLQFHGGYGFACEYDIERKFRETRLYQVAPISTNLILSYIAEHVLEMPRSF | failed |
| MKSILEQLSSMTVVVADTGDLDSIKKFQPRDATTNPSLILAAAKNPDYVKLIDKAIESSENTLPNGFSEIELIKETVDQVSVFFGKEILKIISGRVSTEVDARLSFDTEATVKKARKLINLYKNFGIEKERILIKIAATWEGIKAAEILEKEGIKCNLTLLFNFCQAVTCANANITLISPFVGRILDWHKAKTGKTSFIGAEDPGVISVTQIYKYFKEKGFKTEVMGASFRNLDEIKELAGCDLLTIAPKFLEELKREKGVLIRKLDASTKINNSIDYKFEEKDFRLSMLEDQMASEKLSEGITGFSKAIEELEELLIERLSEMKNHKLISAN | not failed |
| MKSKFFAQNRERLVNTLPDESITILFAGQAPHMSADAHYKFVPNRNFYYVTGIDEPNVIFMLKKFGNSVEETLFIEKSDPVMEKWVGKTVSNEEAEKISGIKKVIYLDSFEKTMSNIFFTENVKHLYLDLECREWKGTETKTLAFAKHVREQYPHVTIGNVYPNICELRVFKTDEEIEIIKEAIAVTKDGIYNVLKHAKADMMEYELEAQFDFTLKSSGIKHHAFNTILASGKNATVLHYEDNDAQIQNGDLVLLDLGAQKDYYNADISYTFPANGTFSSRQKQIYNIVLNALKETTEIIKPGLKFAALNEHAKKVLAEGCKAVGLIQEDEELSKYYYHGVSHFLGLDTHDVGTYKDRVLEEGMVITIEPGLYIEEESIGIRIEDDILVTKDGHENLSKDIIREVEEIEEFMRENNVNVKQDEVVTK | not failed |
